Data set [1] has as its target BACE inhibitor 1 (statine BACE inhibitor 1).
For data set [2], the target named is recombinant sAPPα, human, amino acids 19-613, P05067.
In another data set the target is T1, Peptide 65007.
T1 chain: ALYPYFLPISAK

The next data set concerns the target T2, Peptide 65005.
T2 chain: NLTTYPYFIPL

recombinant sAPPα, human, amino acids 19-613, P05067, sequence (P05067 19-613): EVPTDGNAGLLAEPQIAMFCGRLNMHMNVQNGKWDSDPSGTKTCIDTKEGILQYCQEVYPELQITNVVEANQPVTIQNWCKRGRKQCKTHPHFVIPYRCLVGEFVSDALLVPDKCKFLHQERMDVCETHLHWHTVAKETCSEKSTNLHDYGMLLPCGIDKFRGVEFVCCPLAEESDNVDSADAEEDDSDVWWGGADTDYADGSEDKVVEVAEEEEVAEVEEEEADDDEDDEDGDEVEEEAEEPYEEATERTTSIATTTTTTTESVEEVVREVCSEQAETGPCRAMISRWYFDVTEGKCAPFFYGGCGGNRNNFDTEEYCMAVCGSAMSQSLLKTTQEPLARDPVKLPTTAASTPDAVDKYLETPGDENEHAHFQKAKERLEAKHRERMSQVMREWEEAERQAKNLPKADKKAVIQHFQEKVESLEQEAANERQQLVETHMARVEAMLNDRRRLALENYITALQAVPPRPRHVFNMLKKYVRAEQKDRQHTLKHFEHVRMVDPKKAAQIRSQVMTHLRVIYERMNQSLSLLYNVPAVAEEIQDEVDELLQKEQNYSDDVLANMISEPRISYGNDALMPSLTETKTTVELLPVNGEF

B1: BACE in mouse primary cortical neurons (protein)
chain: ETDEESEEPGRRGSFVEMVDNLRGKSGQGYYVEMTVGSPPQTLNILVDTGSSNFAVGAAPHPFLHRYYQRQLSSTYRDLRKGVYVPYTQGKWEGELGTDLVSIPHGPNVTVRANIAAITESDKFFINGSNWEGILGLAYAEIARPDDSLEPFFDSLVKQTHIPNIFSLQLCGAGFPLNQTEALASVGGSMIIGGIDHSLYTGSLWYTPIRREWYYEVIIVRVEINGQDLKMDCKEYNYDKSIVDSGTTNLRLPKKVFEAAVKSIKAASSTEKFPDGFWLGEQLVCWQAGTTPWNIFPVISLYLMGEVTNQSFRITILPQQYLRPVEDVATSQDDCYKFAVSQSSTGTVMGAVIMEGFYVVFDRARKRIGFAVSACHVHDEFRTAAVEGPFVTADMEDCGYNIPQTDESTLMTIAYVMAAICALFMLPLCLMVCQWRCLRCLRHQHDDFADDISLLK
With B1, in data set [1], the “CHL1 and L1CAM cleavage (uncleaved substrate/α-tubulin OD ratio, immunoblot), 10 µM, 24 hours” value was “only BACE Inh 4 (blue) clearly inhibited cleavage; BACE Inh 1, peptides 65005 and 65007 and sAPPα did not”; the “uncleaved neurofascin (immunoblot), 10 µM, 24 hours” value is “Only BACE Inh 4 and BACE Inh 1 treatment resulted in an increase of uncleaved NrCAM or neurofascin, respectively”. In data set [2], the “CHL1 and L1CAM cleavage (uncleaved substrate/α-tubulin OD ratio, immunoblot), 1 µM, 24 hours” value is “only BACE Inh 4 (blue) clearly inhibited cleavage; BACE Inh 1, peptides 65005 and 65007 and sAPPα did not”; the “uncleaved NrCAM and neurofascin (immunoblot), 1 µM, 24 hours” value was “none of the other inhibitors increased the amount of uncleaved NrCAM or neurofascin substrate”. In the data set with Peptide 65007, the “CHL1 and L1CAM cleavage (uncleaved substrate/α-tubulin OD ratio, immunoblot), 10 µM, 24 hours” value was “only BACE Inh 4 (blue) clearly inhibited cleavage; BACE Inh 1, peptides 65005 and 65007 and sAPPα did not”; the “uncleaved NrCAM and neurofascin (immunoblot), 10 µM, 24 hours” value is “none of the other inhibitors increased the amount of uncleaved NrCAM or neurofascin substrate”. Besides, in the data set with Peptide 65005, the “CHL1 and L1CAM cleavage (uncleaved substrate/α-tubulin OD ratio, immunoblot), 10 µM, 24 hours” value is “only BACE Inh 4 (blue) clearly inhibited cleavage; BACE Inh 1, peptides 65005 and 65007 and sAPPα did not”; the “uncleaved NrCAM and neurofascin (immunoblot), 10 µM, 24 hours” value is “none of the other inhibitors increased the amount of uncleaved NrCAM or neurofascin substrate”.

The record behind these values is US20220305006.
